Experimental data: paper PMC3045386, “Insights into the Function of the CRM1 Cofactor RanBP3 from the Structure of Its Ran-Binding Domain” (PLoS ONE, 2011)
Values belong to the binder of their own block, whether it stands above or below them.

Key:
RanQ69L:GTP [1] = target: T1, RanQ69L:GTP (human, UniProt P62826 1-216, Q69L); assay: ITC; 800 µM RanBP3 RBD (residues 310–454) titrated into 70 µM RanQ69L:GTP; 25°C; 300 mM NaCl, 5 mM MgCl2, 10 mM TRIS pH 7.4; single-site binding model; Kd,obs; conditions: both partners purified
RanQ69L:GTP [2] = target: T1, RanQ69L:GTP; assay: ITC; 530 µM RanQ69L:GTP titrated into 48 µM full-length RanBP3; 25°C; 300 mM NaCl, 5 mM MgCl2, 10 mM TRIS pH 7.4; single-site binding model; Kd,obs; conditions: both partners purified

- Kd (RanQ69L:GTP [1]): 14 ± 0.3 µM
- stoichiometry N (RanQ69L:GTP [1]): 0.93 ± 0.01
B1: RanBP3 RBD (residues 310–454) (domain or fragment)
chain: KATARKCLLEKVEVITGEEAESNVLQMQCKLFVFDKTSQSWVERGRGLLRLNDMASTDDGTLQSRLVMRTQGSLRLILNTKLWAQMQIDKASEKSIRITAMDTEDQGVKVFLISASSKDTGQLYAALHHRILALRSRVEQEQEAK

- Kd (RanQ69L:GTP [2]): 15 ± 3 µM
B2: Human full-length RanBP3 (residues 1–499; isoform B) (natural protein)
chain: MADLANEEKPAIAPPVFVFQKDKGQKRSAGGSSPEGGEDSDREDGNYCPPVKRERTSSLTQFPPSQSEERSSGFRLKPPTLIHGQAPSAGLPSQKPKEQQRSVLRPAVLQAPQPKALSQTVPSSGTNGVSLPADCTGAVPAASPDTAAWRSPSEAADEVCALEEKEPQKNESSNASEEEACEKKDPATQQAFVFGQNLRDRVKLINESVDEADMENAGHPSADTPTATNYFLQYISSSLENSTNSADASSNKFVFGQNMSERVLSPPKLNEVSSDANRENAAAESGSESSSQEATPEKESLAESAAAYTKATARKCLLEKVEVITGEEAESNVLQMQCKLFVFDKTSQSWVERGRGLLRLNDMASTDDGTLQSRLVMRTQGSLRLILNTKLWAQMQIDKASEKSIRITAMDTEDQGVKVFLISASSKDTGQLYAALHHRILALRSRVEQEQEAKMPAPEPGAAPSNEEDDSDDDDVLAPSGATAAGAGDEGDGQTTGST
